Measured values as given in article PMC12120766, “Paclitaxel/Luteolin Coloaded Dual‐Functional Liposomes for Esophageal Cancer Therapy”.

Experiments:
CTNNA1 (catenin alpha 1) [1] = target: T1, CTNNA1 (catenin alpha 1) (UniProt P35221 2-906); assay: MST; no antibody (control of the antibody competition); MST: 50 nM labeled CTNNA1 in 10 mM PBS pH 7.4, EA2 0.00153-50 uM in 10 mM PBST (0.05% Tween-20) pH 7.4; temperature not stated; details: tags: RED-NHS dye label; predicted mFold secondary structure
CTNNA1 (catenin alpha 1) [2] = target: T1, CTNNA1 (catenin alpha 1); assay: MST; MST: 50 nM labeled CTNNA1 in 10 mM PBS pH 7.4, EA2 0.00153-50 uM in 10 mM PBST (0.05% Tween-20) pH 7.4; temperature not stated; details: tags: RED-NHS dye label; predicted mFold secondary structure

T1 sequence (P35221 2-906): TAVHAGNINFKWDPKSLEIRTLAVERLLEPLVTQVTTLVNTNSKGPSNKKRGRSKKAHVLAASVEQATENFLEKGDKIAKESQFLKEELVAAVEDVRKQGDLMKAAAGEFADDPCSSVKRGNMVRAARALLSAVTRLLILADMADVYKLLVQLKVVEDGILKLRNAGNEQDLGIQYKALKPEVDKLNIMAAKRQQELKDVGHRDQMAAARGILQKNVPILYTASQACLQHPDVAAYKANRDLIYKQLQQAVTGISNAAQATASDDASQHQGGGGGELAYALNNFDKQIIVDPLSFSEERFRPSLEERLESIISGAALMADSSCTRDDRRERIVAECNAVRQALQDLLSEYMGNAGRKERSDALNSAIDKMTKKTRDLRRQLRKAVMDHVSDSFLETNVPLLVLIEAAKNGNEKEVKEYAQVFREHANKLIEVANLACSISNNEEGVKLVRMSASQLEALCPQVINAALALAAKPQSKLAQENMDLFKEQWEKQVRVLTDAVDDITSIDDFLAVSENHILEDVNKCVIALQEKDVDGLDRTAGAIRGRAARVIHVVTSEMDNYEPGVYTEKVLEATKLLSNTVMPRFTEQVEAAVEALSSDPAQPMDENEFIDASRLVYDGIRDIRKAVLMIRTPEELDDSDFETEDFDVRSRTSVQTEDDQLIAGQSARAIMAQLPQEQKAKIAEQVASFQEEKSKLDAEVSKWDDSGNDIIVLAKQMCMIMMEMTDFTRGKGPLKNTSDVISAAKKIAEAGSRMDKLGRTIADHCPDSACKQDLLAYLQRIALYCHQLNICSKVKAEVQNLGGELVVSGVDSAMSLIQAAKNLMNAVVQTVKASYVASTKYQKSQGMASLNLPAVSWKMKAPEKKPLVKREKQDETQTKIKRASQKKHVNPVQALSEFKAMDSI

B1: EA2 (ssDNA)
DNA: AGCCTAAGCCTGTCCAGGAATCGTGCAGCCATAGCCTAAGCCTGTCCAGGAATCGATGGCTTAGTGGCACGATTAGGTC
- Kd (CTNNA1 (catenin alpha 1) [1]): 2.3 ± 0.6 µM
- Kd (CTNNA1 (catenin alpha 1) [2]): 2.07 ± 0.6 µM
